Consider one substance from publication PMC4813465, “Selective Inhibition of the Mitochondrial Permeability Transition Pore Protects against Neurodegeneration in Experimental Multiple Sclerosis” (The Journal of Biological Chemistry, 2015).

This experiment addresses cyclophilin D (CypD, PPIF) with a K133I mutation.

With cyclosporine (cyclosporin A) (peptide), the half-maximal inhibition of Ca2+-induced PT pore opening, calcium retention capacity (CRC) assay on isolated liver mitochondria stood at 40 nM.
